Measurements from patent US20050287527A1, “Quantitative ranking of transient ligand binding to target biomolecules” (National Research Council of Canada, priority 2002, published 2005).

Target: Recombinant Cdc42 (residues 1-178) from Candida Albicans (Candida albicans) (UniProt P0CY33)
Test: method not stated; the complexes give no response in relaxation dispersion

Chain of Recombinant Cdc42 (residues 1-178) from Candida Albicans (Candida albicans) (P0CY33 1-178 limits assumed): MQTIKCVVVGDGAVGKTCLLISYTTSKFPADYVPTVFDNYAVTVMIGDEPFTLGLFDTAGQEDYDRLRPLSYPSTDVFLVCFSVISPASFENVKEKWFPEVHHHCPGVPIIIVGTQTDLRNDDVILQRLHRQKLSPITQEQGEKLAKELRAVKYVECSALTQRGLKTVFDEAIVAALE

Substance	Kd [pM]
40-residue CRIB domain of Candida Cla4 (peptide)	500
40-residue CRIB domain of Candida Ste20 (peptide)	500
